# Measured values published in paper PMC9779650 (2022).
# B1: P4A2 monoclonal antibody (antibody, V domains shown)
# VH: QVQLQQSGAELVKPGASVKLSCKASGFTFTRYSIYWMKQRPGQGLEWIGEINPSTGDTNFNEKFKSKATLTVDKSSTTAYMQLSSLTSEDSAVYYCTRSTGYWGQGTLVTVSA
# VL: DIVLTQSPASLAVSLGQRATISCRASESVEYHGTILMQWFQQKPGQPPRLLIYAASNVDSGVPARFSGSGSGTDLSLNIHPVEEDDIAMYFCQQSRKVPYTFGGGTKLEIK
# Assays:
# [1] = molecular target: T1, SARS-CoV-2 spike RBD-His (wildtype, WA1/2020) (SARS-CoV-2, UniProt P0DTC2 319-541); assay: BLI
# [2] = molecular target: T1, SARS-CoV-2 spike RBD-His (wildtype, …); assay: BLI; remark: listed apart in the source
binder,measurement,setting,value
B1,Kd,[1],< 1 pM
same,koff,[2],< 1e-07 s⁻¹
